Data: article PMC9103804, “RNA and Protein Determinants Mediate Differential Binding of miRNAs by a Viral Suppressor of RNA Silencing Thus Modulating Antiviral Immune Responses in Plants” (International Journal of Molecular Sciences, 2022)

How the values were obtained:
CIRV p19 = biological target: T1, CIRV p19 (Carnation Italian ringspot virus, UniProt Q66104 1-172); assay: EMSA; details: protein: recombinant, tags: GST tag removed (PreScission, pGEX-6P-1), chain copies: 2, label: 5'-32P, 3' overhangs 2 nt
T1 sequence: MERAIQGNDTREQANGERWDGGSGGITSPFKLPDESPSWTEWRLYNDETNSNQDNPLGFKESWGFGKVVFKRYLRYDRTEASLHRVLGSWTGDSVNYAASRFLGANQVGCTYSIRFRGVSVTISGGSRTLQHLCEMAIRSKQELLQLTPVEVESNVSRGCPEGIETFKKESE

TAV 2b [1] = biological target: T2, TAV 2b (Tomato aspermy virus, UniProt Q8UYT3 1-95); assay: competition; Kc vs labeled gf698; details: protein: recombinant, tags: His-SUMO removed, chain copies: 2, label: 5'-32P, 3' overhangs 2 nt
T2 sequence: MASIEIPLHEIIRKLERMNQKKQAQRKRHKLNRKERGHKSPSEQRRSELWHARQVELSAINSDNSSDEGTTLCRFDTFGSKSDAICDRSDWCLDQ

TAV 2b [2] = biological target: T2, TAV 2b; assay: EMSA; details: protein: recombinant; tags: His-SUMO removed; chain copies: 2; label: 5'-32P; 3' overhangs 2 nt
[3] = biological target: the molecule itself; assay: AUC; analytical ultracentrifugation at protein concentrations of 1.2-13 uM (CIRV p19); data not shown; procedure as in ref. 36

B1: miR162-13gU/7*C (dsRNA)
RNA 1: UCGAUAAACCUCUGCAUCCAG
RNA 2: GGAUGCCGAGGUUCAUCGAUC
modifications: 5'-phosphate
Kd (CIRV p19; C/U mismatch): 1.01 ± 0.1 nM

B2: miR162-10gU/10*G (dsRNA)
RNA 1: UCGAUAAACUUCUGCAUCCAG
RNA 2: GGAUGCAGAGGUUCAUCGAUC
modifications: 5'-phosphate
Kd (CIRV p19; G-U wobble): 0.63 ± 0.21 nM

B3: miR162-19gC/1*C (dsRNA)
RNA 1: UCGAUAAACCUCUGCAUCCAG
RNA 2: CGAUGCAGAGGUUCAUCGAUC
modifications: 5'-phosphate
Kd (CIRV p19; C/C mismatch): 0.34 ± 0.15 nM

B4: miR162-12gG/8*G (dsRNA)
RNA 1: UCGAUAAACCUGUGCAUCCAG
RNA 2: GGAUGCAGAGGUUCAUCGAUC
modifications: 5'-phosphate
Kd (CIRV p19; G/G mismatch): 0.07 ± 0.04 nM

B5: AtmiR168a variant 2 (dsRNA)
RNA 1: UCGCUUGGUGCAGGUCGGGAA
RNA 2: CCCGCCUUGCACCAACUGAAU
modifications: 5'-phosphate
Ki (TAV 2b [1]; mismatches and G-U wobbles): 1.1 ± 0.2 nM
Kd (CIRV p19; mismatches and G-U wobbles): 0.71 ± 0.28 nM

B6: AtmiR168a variant 4 (dsRNA)
RNA 1: UCGCUUGGUGCAGGUCGGGAA
RNA 2: CCCGACCUGCAUCAAAUGAAU
modifications: 5'-phosphate
Kd (CIRV p19; G-U wobbles): 2.65 ± 0.49 nM

B7: miR162-16gU/4*G (dsRNA)
RNA 1: UCGAUAAACCUCUGCUUCCAG
RNA 2: GGAGGCAGAGGUUCAUCGAUC
modifications: 5'-phosphate
Kd (CIRV p19; G-U wobble): 0.17 ± 0.05 nM

B8: AtmiR168a variant 5 (dsRNA)
RNA 1: UCGCUUGGUGCAGGUCGGGAA
RNA 2: CCCGACUUGCACCAAGUGAAU
modifications: 5'-phosphate
Ki (TAV 2b [1]; G-U wobbles): 1.4 ± 0.2 nM
Kd (CIRV p19; G-U wobbles): 0.48 ± 0.17 nM

B9: miR162-10gC/10*C (dsRNA)
RNA 1: UCGAUAAACCUCUGCAUCCAG
RNA 2: GGAUGCAGACGUUCAUCGAUC
modifications: 5'-phosphate
Kd (CIRV p19; C/C mismatch): 1.73 ± 0.57 nM

B10: miR162-14gG/6*U (dsRNA)
RNA 1: UCGAUAAACCUCUGCAUCCAG
RNA 2: GGAUGUAGAGGUUCAUCGAUC
modifications: 5'-phosphate
Kd (CIRV p19; U-G wobble): 0.15 ± 0.09 nM

B11: miR162-15gC/5*C (dsRNA)
RNA 1: UCGAUAAACCUCUGCAUCCAG
RNA 2: GGAUCCAGAGGUUCAUCGAUC
modifications: 5'-phosphate
Kd (CIRV p19; C/C mismatch): 0.23 ± 0.08 nM

B12: gf698 siRNA (dsRNA)
RNA 1: UAGUUCAUCCAUGCCAUGUGU
RNA 2: ACAUGGCAUGGAUGAACUAUA
modifications: 5'-phosphate
Ki (TAV 2b [1]): 0.53 ± 0.08 nM
Kd (CIRV p19): 0.06 ± 0.04 nM
Kd (TAV 2b [2]): 0.68 ± 0.15 nM

B13: miR162-10gC/10*A (dsRNA)
RNA 1: UCGAUAAACCUCUGCAUCCAG
RNA 2: GGAUGCAGAAGUUCAUCGAUC
modifications: 5'-phosphate
Kd (CIRV p19; A/C mismatch): 0.35 ± 0.24 nM

B14: miR162-11gU/9*C (dsRNA)
RNA 1: UCGAUAAACCUCUGCAUCCAG
RNA 2: GGAUGCAGCGGUUCAUCGAUC
modifications: 5'-phosphate
Kd (CIRV p19; C/U mismatch): 0.22 ± 0.03 nM

B15: miR162-0 (dsRNA)
RNA 1: UCGAUAAACCUCUGCAUCCAG
RNA 2: GGAUGCAGAGGUUCAUCGAUC
modifications: 5'-phosphate
Kd (CIRV p19): 0.15 ± 0.06 nM

B16: miR162-13gG/7*U (dsRNA)
RNA 1: UCGAUAAACCUCGGCAUCCAG
RNA 2: GGAUGCUGAGGUUCAUCGAUC
modifications: 5'-phosphate
Kd (CIRV p19; U-G wobble): 1.53 ± 0.49 nM

B17: miR162-12gC/8*C (dsRNA)
RNA 1: UCGAUAAACCUCUGCAUCCAG
RNA 2: GGAUGCACAGGUUCAUCGAUC
modifications: 5'-phosphate
Kd (CIRV p19; C/C mismatch): 0.28 ± 0.24 nM

B18: miR162-17gU/3*G (dsRNA)
RNA 1: UCGAUAAACCUCUGCAUCCAG
RNA 2: GGGUGCAGAGGUUCAUCGAUC
modifications: 5'-phosphate
Kd (CIRV p19; G-U wobble): 0.09 ± 0.04 nM

B19: AtmiR168a variant 6 (dsRNA)
RNA 1: UCGCUUGGUGCAGGUCGGGAA
RNA 2: CCCGACCUGCACCAAGCGAAU
modifications: 5'-phosphate
Ki (TAV 2b [1]): 0.38 ± 0.05 nM
Kd (CIRV p19): 0.34 ± 0.16 nM

B20: AtmiR168a variant 1 (dsRNA)
RNA 1: UCGCUUGGUGCAGGUCGGGAA
RNA 2: CCCGCCCUGCAUCAACUGAAU
modifications: 5'-phosphate
Kd (CIRV p19; mismatches and G-U wobbles): 3.13 ± 1.67 nM

B21: miR162-13gU/7*G (dsRNA)
RNA 1: UCGAUAAACCUCUGCAUCCAG
RNA 2: GGAUGCGGAGGUUCAUCGAUC
modifications: 5'-phosphate
Kd (CIRV p19; G-U wobble): 1.82 ± 0.38 nM

B22: miR162-12gG/8*U (dsRNA)
RNA 1: UCGAUAAACCUGUGCAUCCAG
RNA 2: GGAUGCAUAGGUUCAUCGAUC
modifications: 5'-phosphate
Kd (CIRV p19; U-G wobble): 0.31 ± 0.08 nM

B23: miR162-14gU/6*G (dsRNA)
RNA 1: UCGAUAAACCUCUUCAUCCAG
RNA 2: GGAUGGAGAGGUUCAUCGAUC
modifications: 5'-phosphate
Kd (CIRV p19; G-U wobble): 0.45 ± 0.08 nM

B24: miR162-12gC/8*A (dsRNA)
RNA 1: UCGAUAAACCUCUGCAUCCAG
RNA 2: GGAUGCAAAGGUUCAUCGAUC
modifications: 5'-phosphate
Kd (CIRV p19; A/C mismatch): 0.16 ± 0.03 nM

B25: miR162-12gU/8*G (dsRNA)
RNA 1: UCGAUAAACCUUUGCAUCCAG
RNA 2: GGAUGCAGAGGUUCAUCGAUC
modifications: 5'-phosphate
Kd (CIRV p19; G-U wobble): 1.93 ± 0.13 nM

B26: miR162-16gA/4*G (dsRNA)
RNA 1: UCGAUAAACCUCUGCAUCCAG
RNA 2: GGAGGCAGAGGUUCAUCGAUC
modifications: 5'-phosphate
Kd (CIRV p19; G/A mismatch): 0.38 ± 0.13 nM

B27: AtmiR162 (dsRNA)
RNA 1: UCGAUAAACCUCUGCAUCCAG
RNA 2: GGAGGCAGCGGUUCAUCGAUC
modifications: 5'-phosphate
Ki (TAV 2b [1]; mismatches): 0.67 ± 0.09 nM
Kd (CIRV p19; mismatches): 0.06 ± 0.02 nM

B28: miR162-19gU/1*G (dsRNA)
RNA 1: UCGAUAAACCUCUGCAUCUAG
RNA 2: GGAUGCAGAGGUUCAUCGAUC
modifications: 5'-phosphate
Kd (CIRV p19; G-U wobble): 0.15 ± 0.12 nM

B29: AtmiR168a (dsRNA)
RNA 1: UCGCUUGGUGCAGGUCGGGAA
RNA 2: CCCGCCUUGCAUCAACUGAAU
modifications: 5'-phosphate
Ki (TAV 2b [1]; mismatches and G-U wobbles): 12.1 ± 0.7 nM
Kd (CIRV p19; mismatches and G-U wobbles): 2.49 ± 0.88 nM

B30: miR162-18gC/2*C (dsRNA)
RNA 1: UCGAUAAACCUCUGCAUCCAG
RNA 2: GCAUGCAGAGGUUCAUCGAUC
modifications: 5'-phosphate
Kd (CIRV p19; C/C mismatch): 0.12 ± 0.08 nM

B31: miR162-11gU/9*G (dsRNA)
RNA 1: UCGAUAAACCUCUGCAUCCAG
RNA 2: GGAUGCAGGGGUUCAUCGAUC
modifications: 5'-phosphate
Kd (CIRV p19; G-U wobble): 0.14 ± 0.12 nM

B32: miR162-15gU/5*G (dsRNA)
RNA 1: UCGAUAAACCUCUGUAUCCAG
RNA 2: GGAUGCAGAGGUUCAUCGAUC
modifications: 5'-phosphate
Kd (CIRV p19; G-U wobble): 0.1 ± 0.01 nM

B33: AtmiR168a variant 3 (dsRNA)
RNA 1: UCGCUUGGUGCAGGUCGGGAA
RNA 2: CCCGCCCUGCACCAACUGAAU
modifications: 5'-phosphate
Ki (TAV 2b [1]; mismatches): 2.2 ± 0.4 nM
Kd (CIRV p19; mismatches): 1 ± 0.24 nM

B34: miR162-18gU/2*G (dsRNA)
RNA 1: UCGAUAAACCUCUGCAUUCAG
RNA 2: GGAUGCAGAGGUUCAUCGAUC
modifications: 5'-phosphate
Kd (CIRV p19; G-U wobble): 0.13 ± 0.03 nM

B35: p19 protein of Carnation Italian ringspot virus (CIRV) (natural protein)
chain: MERAIQGNDTREQANGERWDGGSGGITSPFKLPDESPSWTEWRLYNDETNSNQDNPLGFKESWGFGKVVFKRYLRYDRTEASLHRVLGSWTGDSVNYAASRFLGANQVGCTYSIRFRGVSVTISGGSRTLQHLCEMAIRSKQELLQLTPVEVESNVSRGCPEGIETFKKESE
notes: p19 suppressor of RNA silencing, Carnation Italian ringspot virus (Tombusvirus); the p19 ORF cloned into pGEX-6P-1, GST removed with PreScission protease; Residues of the vector may be left at the N-terminus after PreScission cleavage (surmised); also called CIRV p19; p19 wt; source: E. coli BL21 (DE3) RIPL, purified (GSTrap, PreScission cleavage, Resource Q anion exchange)
stoichiometry N [3]: 2

B36: miR162-14gG/6*A (dsRNA)
RNA 1: UCGAUAAACCUCUGCAUCCAG
RNA 2: GGAUGAAGAGGUUCAUCGAUC
modifications: 5'-phosphate
Kd (CIRV p19; A/G mismatch): 0.86 ± 0.49 nM

B37: miR162-17gU/3*C (dsRNA)
RNA 1: UCGAUAAACCUCUGCAUCCAG
RNA 2: GGCUGCAGAGGUUCAUCGAUC
modifications: 5'-phosphate
Kd (CIRV p19; C/U mismatch): 0.3 ± 0.17 nM
